One series relates to T1, Pep2-8-ctrl.
T1 sequence: TVATSAEEYLLWV

The test system of another series is T2, Compound 26.
T2 sequence: SGCFIPWNLQRIGLLC

A further series concerns T3, Pep2-8.
T3 sequence: TVFTSWEEYLDWV

Another series deals with T4, Compound 29.
T4 sequence: SGCFIPWNLQRIGLLC

Another series has as its system T5, Compound 118.
T5 sequence: WNLVXIGLTR

For PCSK9-R167A:R215A:R218A, the “FXIa cleavage of the P′ helix (immunoblot)” value in the series on Pep2-8-ctrl is “The control peptide did not inhibit cleavage and gave similar results as the buffer control”; in the series on Compound 26 it was “both groove binding peptides accelerated the cleavage reaction, leading to almost complete cleavage of the P′ helix”; in the series on Pep2-8 it was “both reagents largely prevented cleavage of the P′ helix by FXIa”; in the series on Compound 29, “both groove binding peptides accelerated the cleavage reaction, leading to almost complete cleavage of the P′ helix”; in the series with Compound 118 it was “resulted in a higher degree of P′ helix cleavage by FXIa as compared to the peptide Compound 112”.

The values above are taken from patent US20190177366.
